# Measurements: patent publication US20230050380A1 (CHIOME BIOSCIENCE, published 2023)
# T1: crab-eating macaque CDCP1 with N-terminal c-Myc tag (expression vector GS02), on crab-eating macaque … (crab-eating macaque (Macaca …, UniProt Q9H5V8 30-836 (human entry)))
# T1 chain: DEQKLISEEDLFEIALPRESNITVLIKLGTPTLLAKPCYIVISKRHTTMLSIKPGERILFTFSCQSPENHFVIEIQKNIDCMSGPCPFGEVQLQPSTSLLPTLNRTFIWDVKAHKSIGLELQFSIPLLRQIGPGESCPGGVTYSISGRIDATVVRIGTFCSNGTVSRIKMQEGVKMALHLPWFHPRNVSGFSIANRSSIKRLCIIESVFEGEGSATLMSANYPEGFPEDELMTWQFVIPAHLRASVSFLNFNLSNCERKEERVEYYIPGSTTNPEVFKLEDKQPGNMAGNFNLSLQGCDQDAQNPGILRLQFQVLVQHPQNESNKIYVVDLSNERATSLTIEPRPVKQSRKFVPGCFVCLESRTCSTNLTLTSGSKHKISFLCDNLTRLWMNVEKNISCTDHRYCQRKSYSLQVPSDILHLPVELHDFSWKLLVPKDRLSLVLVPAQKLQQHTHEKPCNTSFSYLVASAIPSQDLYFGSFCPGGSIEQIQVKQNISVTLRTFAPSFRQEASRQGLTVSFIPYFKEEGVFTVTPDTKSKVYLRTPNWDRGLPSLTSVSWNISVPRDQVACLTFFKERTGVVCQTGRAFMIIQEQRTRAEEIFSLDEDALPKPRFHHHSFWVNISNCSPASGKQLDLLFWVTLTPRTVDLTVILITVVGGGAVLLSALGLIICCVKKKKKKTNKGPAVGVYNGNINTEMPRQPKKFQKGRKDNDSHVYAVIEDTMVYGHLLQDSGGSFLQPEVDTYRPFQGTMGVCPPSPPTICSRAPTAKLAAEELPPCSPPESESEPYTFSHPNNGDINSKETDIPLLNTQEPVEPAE
# T2: full-length hCDCP1 with N-terminal c-Myc tag (expression vector GS01), on Ba/F3-hCDCP1 cells or … (human, UniProt Q9H5V8 30-836)
# T2 construct: also called human CDCP1; hCDCP1 forced expression cells
# T2 sequence: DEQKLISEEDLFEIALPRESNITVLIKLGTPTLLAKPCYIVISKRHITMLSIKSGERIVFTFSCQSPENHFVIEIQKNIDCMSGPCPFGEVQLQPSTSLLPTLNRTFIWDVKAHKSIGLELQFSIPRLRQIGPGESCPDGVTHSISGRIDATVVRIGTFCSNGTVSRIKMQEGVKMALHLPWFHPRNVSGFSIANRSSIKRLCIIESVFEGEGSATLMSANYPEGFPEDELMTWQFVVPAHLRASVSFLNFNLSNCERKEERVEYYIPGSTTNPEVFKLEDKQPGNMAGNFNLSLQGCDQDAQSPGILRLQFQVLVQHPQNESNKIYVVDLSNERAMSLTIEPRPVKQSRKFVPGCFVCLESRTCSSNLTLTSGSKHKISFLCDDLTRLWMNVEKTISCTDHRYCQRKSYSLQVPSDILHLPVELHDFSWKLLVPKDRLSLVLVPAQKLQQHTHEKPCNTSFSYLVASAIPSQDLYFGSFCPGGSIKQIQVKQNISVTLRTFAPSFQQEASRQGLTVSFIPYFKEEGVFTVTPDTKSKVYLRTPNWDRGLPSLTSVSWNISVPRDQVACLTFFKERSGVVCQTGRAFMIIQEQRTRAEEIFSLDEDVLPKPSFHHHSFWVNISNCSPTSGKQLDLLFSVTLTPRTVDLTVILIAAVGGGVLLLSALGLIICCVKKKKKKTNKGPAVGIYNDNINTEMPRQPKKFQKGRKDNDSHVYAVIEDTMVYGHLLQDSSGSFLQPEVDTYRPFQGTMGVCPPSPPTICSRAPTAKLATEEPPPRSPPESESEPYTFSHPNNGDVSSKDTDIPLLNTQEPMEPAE
# Legend:
# [1] = biological target: T1, crab-eating macaque CDCP1 with …; experiment: flow cytometry on crab-eating macaque CDCP1-expressing CHO-K1 cells
# Source text: The hCDCP1-expressing CHO-K1 cells and the crab-eating macaque CDCP1-expressing CHO-K1 cells were exfoliated and dispersed using 0.25% trypsin/EDTA (Nacalai Tesque, Inc.), and were then reacted with various concentrations of individual mouse-human chimeric antibodies, namely, mh12A041HCori/LCori, mh14A025HCori/LCori, mh14A043HCori/LCori, mh14A055, mh14A063HCori/LCori, and mh14A091. Thereafter, the binding property of the antibodies was observed by flow cytometry (FIG. 9). As a result, these 6 antibodies all reacted with the crab-eating macaque CDCP1, and in particular, the 5 antibodies other than mh14A055 reacted with both the human CDCP1 and the crab-eating macaque CDCP1 at the same levels.
# [2] = biological target: T2, full-length hCDCP1 with N-terminal …; experiment: flow cytometry on untreated Ba/F3-hCDCP1 cells (comparison of FIG. 8)
# Description: In order to investigate whether the obtained anti-hCDCP1 mouse-human chimeric antibodies bind to the N-terminal side of the serine protease cleavage site of the hCDCP1 molecules or bind to the transmembrane region side, […] the technique mentioned in the previous section. The following anti-hCDCP1 mouse-human chimeric antibody clones were evaluated: [0259] mh12A041HCori/LCori, mh14A025HCori/LCori, mh14A043HCori/LCori, mh14A055, mh14A063HCori/LCori, and mh14A091.
# […] It was confirmed by the same Western blotting as that mentioned in the previous section that the full-length hCDCP1 disappeared and only the cleaved hCDCP1 was present in the above-treated Ba/F3-CDCP1 cells. With respect to these cells, a dilution series of anti-hCDCP1 mouse-human chimeric antibodies from 5 μg/mL to 5 ng/mL was prepared, and was then reacted at 4° C. for 30 minutes. As a negative control, a similar dilution series of anti-RS virus antibodies described in the later section was prepared as a non-specific human IgG, and was then reacted at 4° C. for 30 minutes.
binding result [1],binding result [2],Binder
binds,binds,"mh14A091 (antibody, human IgG1, kappa, V domains shown, mouse-human chimeric antibody of 14A091, human IgG1/kappa constant regions) VH: EVQLQESGAELARPGASVKLSCKASGYTFTSYWMQWVKQRPGQGLEWIGAIYPGDGDTRYTQKFKGKATLTADKSSSTAYMQLSSLASEDSAVYYCAGYDAPWFAYWGQGTLVTVSS VL: NIVLTQSPASLAVSLGQRATISCRASESVDSYGNSFMHWYQQKPGQPPKLLIYLASNLESGVPARFSGSGSRTDFTLTIDPVEADDAATYYCQQNNEDPWTFGGGTKLEIKR"
binds,binds,"mh14A055 (antibody, human IgG1, kappa, V domains shown, mouse-human chimeric antibody of 14A055, human IgG1/kappa constant regions) VH: EVQLQESGPGLVAPSQSLSITCTVSGFSLTGYGVNWVRQPPGKGLEWLGMIWGDGSTDYNSALKSRLSISKDNSKSQVFLKMNSLQTDDTARYYCARDGYDGAMDYWGQGTSVTVSS VL: not shown"
